Measurements: paper PMC4715599 (Molecular microbiology, 2015)

Target: MalFGK2 (Escherichia coli, UniProt P02916+P68183+P68187)
Type: biochemical

| Molecule | stimulation of MBP-dependent ATPase activity by maltose (transporter reconstituted in nanodiscs) | ATPase activity in the absence of MBP (MalFGK2 in nanodiscs) | basal ATPase activity (in detergent, absence of MBP) |
| --- | --- | --- | --- |
| OC[C@H]1O[C@H](O[C@H]2[C@H](O)[C@@H](O)C(O)O[C@@H]2CO)[C@H](O)[C@@H](O)[C@@H]1O (mixture of isomers) [maltose, reference compound] | about 10 fold |  |  |
| MalFGK2: E. coli maltose ABC transporter complex: MalF, MalG and MalK dimer |  | did not exhibit any detectable ATPase activity | ~ 122 nmol/min/mg |
